Laboratory results as given in the supplement of paper PMC11811203.

B1: THAP1; numbered along this chain (parent)
chain: MVQSCSAYGCKNRYDKDKPVSFHKFPLTRPSLCKEWEAAVRRKNFKPTKYSSICSEHFTPDCFKRECNNKLLKENAVPTIFLCTEPHDKKEDLLEPQEQLPPPPLPPPVSQVDAAIGLLMPPLQTPVNLSVFCDHNYTVEDTMHQRKRIHQLEQQVEKLRKKLKTAQQRCRRQERQLEKLKEVVHFQKEKDDVSERGYVILPNDYFEIVEVPA

Variants of: B1
Experiment: THAP1 transcriptional activity (GFP+/GFP- enrichment relative to wild-type constructs) (ratio to WT); higher = more THAP1 activity (PSMB5 reporter activation)
Conditions: with PSMB5 promoter-GFP reporter
Method: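 Deep mutational scan of human THAP1. Site-saturation single amino acid variant library (residues 2-213) was expressed by lentivirus at MOI ~0.3 in THAP1-knockout HEK-293T cells carrying an endogenous PSMB5 promoter-GFP knock-in reporter. Five days post-transduction, BFP+ cells were FACS-sorted into GFP dim and GFP bright populations and variants were counted by Illumina sequencing. Activity is the GFP-bright/GFP-dim read fold change, mean of 2 replicates, divided by the mean fold change of wild-type (synonymous) constructs in the same screen pool; WT = 1.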

| Variant | THAP1 transcriptional activity |
| --- | --- |
| A39M | 0.752 |
| A39P | 0.143 |
| A39C | 0.272 |
| A39E | 0.168 |
| A39I | 0.271 |
| A39Y | 0.413 |
| A39K | 0.9 |
| A39F | 0.283 |
| A39L | 0.253 |
| A39G | 0.131 |
| A39Q | 0.502 |
| A39H | 0.601 |
| A39W | 0.289 |
| A39S | 0.512 |
| A39D | 0.172 |
| A39T | 0.26 |
| A39N | 0.865 |
| A39R | 0.673 |
| A39V | 0.252 |
| L27P | 0.103 |
| L27T | 0.31 |
| L27F | 0.503 |
| L27Q | 0.235 |
| L27N | 0.0759 |

| Variant | THAP1 transcriptional activity |
| --- | --- |
| L27C | 0.14 |
| L27S | 0.183 |
| L27R | 0.23 |
| L27V | 0.488 |
| L27M | 0.41 |
| L27A | 0.142 |
| L27K | 0.111 |
| L27D | 0.111 |
| L27W | 0.263 |
| L27G | 0.0873 |
| L27I | 0.729 |
| L27E | 0.0928 |
| L27Y | 0.304 |
| L27H | 0.0857 |
| R29W | 0.129 |
| R29P | 0.135 |
| R29T | 0.12 |
| R29V | 0.177 |
| R29K | 0.357 |
| R29D | 0.187 |
| R29C | 0.137 |
| R29L | 0.0833 |
| R29N | 0.536 |
| R29H | 0.211 |

| Variant | THAP1 transcriptional activity |
| --- | --- |
| R29F | 0.154 |
| R29G | 0.131 |
| R29S | 0.134 |
| R29A | 0.122 |
| R29M | 0.162 |
| R29I | 0.134 |
| R29Q | 0.36 |
| R29E | 0.127 |
| R29Y | 0.118 |
| C33R | 0.15 |
| C33F | 0.17 |
| C33E | 0.0749 |
| C33D | 0.11 |
| C33W | 0.11 |
| C33H | 0.173 |
| C33N | 0.177 |
| C33V | 0.301 |
| C33K | 0.22 |
| C33A | 0.499 |
| C33Q | 0.193 |
| C33I | 0.159 |
| C33P | 0.117 |
| C33M | 0.188 |
| C33Y | 0.162 |

| Variant | THAP1 transcriptional activity |
| --- | --- |
| C33S | 0.242 |
| C33T | 0.142 |
| C33L | 0.708 |
| W36L | 0.338 |
| W36Q | 0.18 |
| W36C | 0.248 |
| W36D | 0.159 |
| W36G | 0.0718 |
| W36E | 0.13 |
| W36A | 0.0783 |
| W36K | 0.123 |
| W36F | 0.221 |
| W36I | 0.0405 |
| W36V | 0.138 |
| W36T | 0.143 |
| W36N | 0.101 |
| W36P | 0.167 |
| W36M | 0.182 |
| W36Y | 0.178 |
| W36H | 0.187 |
| W36R | 0.107 |
| W36S | 0.197 |
| E35R | 0.909 |
| E35I | 0.451 |

| Variant | THAP1 transcriptional activity |
| --- | --- |
| E35L | 1.18 |
| E35C | 0.317 |
| E35S | 0.44 |
| E35H | 0.328 |
| E35Y | 0.266 |
| E35A | 0.556 |
| E35M | 0.787 |
| E35W | 0.203 |
| E35G | 0.183 |
| E35D | 0.688 |
| E35P | 0.243 |
| E35Q | 1.42 |
| E35F | 0.223 |
| E35T | 0.473 |
| E35V | 0.479 |
| E35K | 0.751 |
| A38M | 0.788 |
| A38K | 1.34 |
| A38P | 0.09 |
| A38G | 0.417 |
| A38T | 0.773 |
| A38C | 0.377 |
| A38I | 0.735 |
| A38E | 0.41 |

| Variant | THAP1 transcriptional activity |
| --- | --- |
| A38R | 1.14 |
| A38S | 0.593 |
| A38D | 1 |
| A38N | 1.08 |
| A38V | 0.684 |
| A38H | 0.797 |
| A38W | 0.234 |
| A38F | 0.511 |
| A38Q | 0.891 |
| P30L | 0.261 |
| P30C | 0.123 |
| P30E | 0.399 |
| P30S | 0.33 |
| P30Y | 0.21 |
| P30Q | 0.583 |
| P30H | 0.384 |
| P30T | 0.349 |
| P30W | 0.0759 |
| P30G | 0.282 |
| P30R | 0.396 |
| P30M | 0.245 |
| P30K | 0.428 |
| P30V | 0.418 |
| P30A | 0.476 |

| Variant | THAP1 transcriptional activity |
| --- | --- |
| P30F | 0.129 |
| P30D | 0.254 |
| P30I | 0.278 |
| P30N | 0.33 |
| P26K | 0.155 |
| P26H | 0.0688 |
| P26E | 0.157 |
| P26W | 0.0853 |
| P26A | 0.13 |
| P26D | 0.0858 |
| P26Y | 0.208 |
| P26F | 0.0724 |
| P26V | 0.127 |
| P26C | 0.106 |
| P26G | 0.0891 |
| P26T | 0.0945 |
| P26Q | 0.222 |
| P26S | 0.0994 |
| P26N | 0.147 |
| P26R | 0.098 |
| P26I | 0.178 |
| P26L | 0.104 |
| L32T | 0.295 |
| L32I | 0.906 |

| Variant | THAP1 transcriptional activity |
| --- | --- |
| L32D | 0.155 |
| L32V | 0.794 |
| L32F | 0.14 |
| L32R | 0.31 |
| L32S | 0.21 |
| L32P | 0.113 |
| L32N | 0.173 |
| L32G | 0.156 |
| L32W | 0.161 |
| L32Y | 0.135 |
| L32E | 0.135 |
| L32C | 0.199 |
| L32M | 0.357 |
| L32Q | 0.378 |
| L32A | 0.175 |
| L32H | 0.17 |
| L32K | 0.267 |
| K24L | 0.156 |
| K24H | 0.345 |
| K24E | 0.138 |
| K24M | 0.118 |
| K24F | 0.1 |
| K24D | 0.116 |
| K24S | 0.088 |

| Variant | THAP1 transcriptional activity |
| --- | --- |
| K24C | 0.146 |
| K24I | 0.0809 |
| K24W | 0.156 |
| K24P | 0.125 |
| K24A | 0.122 |
| K24Y | 0.11 |
| K24Q | 0.0996 |
| K24G | 0.13 |
| K24N | 0.0904 |
| K24T | 0.109 |
| K24R | 1.73 |
| K24V | 0.121 |
| H23V | 0.0823 |
| H23F | 0.0843 |
| H23I | 0.0266 |
| H23N | 0.0799 |
| H23Y | 0.179 |
| H23E | 0.123 |
| H23P | 0.161 |
| H23G | 0.088 |
| H23R | 0.084 |
| H23C | 0.0806 |
| H23A | 0.116 |
| H23L | 0.0839 |

| Variant | THAP1 transcriptional activity |
| --- | --- |
| H23M | 0.0825 |
| H23Q | 0.0718 |
| H23W | 0.0807 |
| H23K | 0.125 |
| H23T | 0.0534 |
| H23S | 0.127 |
| H23D | 0.117 |
| K34T | 0.337 |
| K34D | 0.207 |
| K34W | 0.233 |
| K34N | 0.391 |
| K34I | 0.528 |
| K34F | 0.281 |
| K34E | 0.59 |
| K34C | 0.284 |
| K34L | 0.613 |
| K34P | 0.0748 |
| K34S | 0.646 |
| K34Q | 0.971 |
| K34A | 0.749 |
| K34R | 0.841 |
| K34Y | 0.316 |
| K34G | 0.217 |
| K34M | 0.397 |

| Variant | THAP1 transcriptional activity |
| --- | --- |
| K34H | 0.459 |
| K34V | 0.529 |
| F25S | 0.0861 |
| F25Q | 0.0935 |
| F25T | 0.0714 |
| F25I | 0.145 |
| F25E | 0.148 |
| F25K | 0.0509 |
| F25W | 0.156 |
| F25H | 0.115 |
| F25V | 0.0907 |
| F25P | 0.105 |
| F25A | 0.123 |
| F25M | 0.131 |
| F25G | 0.182 |
| F25Y | 0.203 |
| F25D | 0.123 |
| F25R | 0.106 |
| F25L | 0.117 |
| F25N | 0.108 |
| F25C | 0.125 |
| T28M | 0.3 |
| T28G | 0.843 |
| T28E | 0.172 |

| Variant | THAP1 transcriptional activity |
| --- | --- |
| T28K | 1.42 |
| T28Q | 0.651 |
| T28N | 0.889 |
| T28C | 0.495 |
| T28H | 0.391 |
| T28S | 3.39 |
| T28L | 0.612 |
| T28Y | 0.137 |
| T28V | 0.231 |
| T28W | 0.188 |
| T28F | 0.194 |
| T28P | 0.103 |
| T28I | 0.198 |
| T28R | 1.03 |
| T28A | 0.664 |
| T28D | 0.202 |
| V40I | 1.6 |
| V40E | 0.113 |
| V40M | 0.853 |
| V40L | 0.867 |
| V40C | 0.665 |
| V40H | 0.17 |
| V40G | 0.0879 |
| V40K | 0.127 |

| Variant | THAP1 transcriptional activity |
| --- | --- |
| V40N | 0.136 |
| V40A | 0.221 |
| V40D | 0.0854 |
| V40F | 0.119 |
| E37F | 0.177 |
| E37W | 0.0974 |
| E37C | 0.963 |
| E37T | 0.905 |
| E37G | 0.195 |
| E37I | 0.988 |
| E37M | 0.792 |
| E37L | 1.16 |
| E37A | 0.542 |
| E37Y | 0.252 |
| E37Q | 0.337 |
| E37N | 0.451 |
| E37D | 0.182 |
| E37P | 0.245 |
| E37R | 0.157 |
| E37K | 0.292 |
| E37S | 0.558 |
| E37H | 0.454 |
| E37V | 0.484 |
| F22S | 0.0454 |

| Variant | THAP1 transcriptional activity |
| --- | --- |
| F22W | 0.125 |
| F22Y | 0.288 |
| F22V | 0.115 |
| F22T | 0.126 |
| S31P | 0.204 |
| S31Q | 0.998 |
| S31C | 0.206 |
| S31V | 0.895 |
| S31E | 1.31 |
| S31D | 1.43 |
| S31R | 1.01 |
| S31T | 1.19 |
| S31F | 0.363 |
| S31G | 1.17 |
| S31L | 1.21 |
| S31I | 0.728 |
| S31N | 0.574 |
| S31A | 1.03 |
| S31H | 0.565 |
| S31Y | 0.535 |
| S31K | 1.13 |
| S31M | 0.6 |
